# Test results taken from article PMC2756588.
# T1: Pin3, Q06449
# T1 sequence (Q06449 53-122, looked up): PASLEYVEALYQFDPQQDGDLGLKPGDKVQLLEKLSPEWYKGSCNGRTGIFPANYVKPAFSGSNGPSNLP
# T2: Bud14, P27637
# T2 sequence (P27637 247-328, looked up): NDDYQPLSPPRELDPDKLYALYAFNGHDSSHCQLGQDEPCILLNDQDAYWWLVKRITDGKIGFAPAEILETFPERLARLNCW
# T3: Boi2, P39969
# T3 sequence (P39969 32-116, looked up): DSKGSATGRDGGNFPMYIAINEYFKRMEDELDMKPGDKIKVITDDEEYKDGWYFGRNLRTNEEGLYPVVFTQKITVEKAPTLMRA
# T4: Lsb4, P32793
# T4 sequence (P32793 402-468, looked up): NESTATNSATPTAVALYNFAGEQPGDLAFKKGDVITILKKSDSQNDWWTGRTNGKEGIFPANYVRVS
# T5: Sla1-3, P32790
# T5 sequence (P32790 344-424, looked up): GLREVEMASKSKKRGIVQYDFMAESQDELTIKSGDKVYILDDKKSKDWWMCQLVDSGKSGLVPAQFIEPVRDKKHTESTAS
# T6: Bzz1-1, P38822
# T6 sequence (P38822 478-572, looked up): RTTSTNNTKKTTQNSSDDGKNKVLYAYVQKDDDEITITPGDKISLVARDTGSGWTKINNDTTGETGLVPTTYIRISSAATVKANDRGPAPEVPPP
# T7: Sla1-2, P32790
# T7 sequence (P32790 60-140, looked up): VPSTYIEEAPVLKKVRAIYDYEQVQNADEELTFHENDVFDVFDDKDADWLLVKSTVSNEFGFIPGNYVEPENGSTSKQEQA
# T8: Fus1, P11710
# T8 sequence (P11710 432-512, looked up): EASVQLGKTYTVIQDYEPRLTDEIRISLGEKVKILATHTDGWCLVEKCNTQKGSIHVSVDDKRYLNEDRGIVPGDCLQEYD
# T9: Boi1, P38041
# T9 sequence (P38041 1-86, looked up): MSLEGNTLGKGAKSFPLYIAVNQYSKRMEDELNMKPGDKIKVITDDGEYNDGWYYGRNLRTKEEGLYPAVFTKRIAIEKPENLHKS
# T10: Abp1, P15891
# T10 sequence (P15891 535-592, looked up): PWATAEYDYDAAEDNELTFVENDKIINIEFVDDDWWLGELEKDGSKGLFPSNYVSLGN
# T11: Bbc1, P47068
# T11 sequence (P47068 1-78, looked up): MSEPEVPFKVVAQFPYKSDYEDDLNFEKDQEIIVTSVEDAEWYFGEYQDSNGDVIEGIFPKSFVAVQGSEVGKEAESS
# T12: Cyk3, Q07533
# T12 sequence (Q07533 1-83, looked up): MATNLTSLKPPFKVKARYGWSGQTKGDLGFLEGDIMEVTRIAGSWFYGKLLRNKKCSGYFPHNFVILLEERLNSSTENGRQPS
# T13: Lsb3, P43603
# T13 sequence (P43603 385-451, looked up): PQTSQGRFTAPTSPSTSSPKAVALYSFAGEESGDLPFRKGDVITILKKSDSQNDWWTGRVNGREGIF
# T14: Pex13, P80667
# T14 sequence (P80667 295-386, looked up): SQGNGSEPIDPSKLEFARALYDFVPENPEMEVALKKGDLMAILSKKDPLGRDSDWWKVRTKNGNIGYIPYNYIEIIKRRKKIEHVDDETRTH
# T15: Lsb1, P53281
# T15 sequence (P53281 45-122, looked up): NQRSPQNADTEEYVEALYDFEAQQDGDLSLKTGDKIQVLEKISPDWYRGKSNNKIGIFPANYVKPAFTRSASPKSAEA
# T16: Nbp2, Q12163
# T16 sequence (Q12163 103-180, looked up): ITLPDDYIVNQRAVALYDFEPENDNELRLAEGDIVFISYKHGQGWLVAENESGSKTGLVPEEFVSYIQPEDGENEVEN
# T17: Myo5, Q04439
# T17 sequence (Q04439 1072-1160, looked up): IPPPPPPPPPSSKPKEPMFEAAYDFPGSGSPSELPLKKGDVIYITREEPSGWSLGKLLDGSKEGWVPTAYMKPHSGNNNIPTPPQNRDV
# T18: Hse1, P38753
# T18 sequence (P38753 208-285, looked up): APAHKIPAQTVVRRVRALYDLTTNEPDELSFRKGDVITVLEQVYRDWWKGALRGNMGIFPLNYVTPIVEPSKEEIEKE
# T19: Bzz1-2, P38822
# T19 sequence (P38822 568-633, looked up): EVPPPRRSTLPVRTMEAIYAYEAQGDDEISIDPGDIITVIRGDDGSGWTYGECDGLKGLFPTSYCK
# T20: Cdc25, P04821
# T20 sequence (P04821 50-136, looked up): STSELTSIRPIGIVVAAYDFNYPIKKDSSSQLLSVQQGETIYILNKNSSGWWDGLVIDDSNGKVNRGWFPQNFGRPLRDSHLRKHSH
# T21: Hof1, Q05080
# T21 sequence (Q05080 590-669, looked up): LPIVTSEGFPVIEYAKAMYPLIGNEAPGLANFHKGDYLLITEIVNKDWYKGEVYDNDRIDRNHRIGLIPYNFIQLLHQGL
# B1: unnamed (peptide)
# chain: RPVPPPPPMRTTTEG
# B2: unnamed (peptide)
# chain: ATNVPVAPPPPPASL
# B3: unnamed (peptide)
# chain: VPVAPPPPPASLGQS
# B4: unnamed (peptide)
# chain: RNNRPVPPPPPMRTT
# Tests used:
# Assay in all cases: SPOT array
# Pin3, Q06449 = target: T1, Pin3, Q06449; settings: median of control spots 2171
# Bud14, P27637 = target: T2, Bud14, P27637; settings: median of control spots 956
# Boi2, P39969 = target: T3, Boi2, P39969; settings: median of control spots 1161
# Bem1-2, P29366 = settings: median of control spots 4347
# Chain of Bem1-2, P29366 (P29366 139-227): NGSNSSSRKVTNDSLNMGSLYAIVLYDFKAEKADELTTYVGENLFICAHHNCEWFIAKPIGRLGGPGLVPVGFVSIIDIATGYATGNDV
# Lsb4, P32793 = target: T4, Lsb4, P32793; settings: median of control spots 397
# Sla1-3, P32790 = target: T5, Sla1-3, P32790; settings: median of control spots 5475
# Bem1-1, P29366 = settings: median of control spots 4282
# Chain of Bem1-1, P29366 (P29366 55-141): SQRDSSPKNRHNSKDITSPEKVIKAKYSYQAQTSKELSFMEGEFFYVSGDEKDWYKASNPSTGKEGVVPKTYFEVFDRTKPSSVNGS
# Bzz1-1, P38822 = target: T6, Bzz1-1, P38822; settings: median of control spots 4446
# Sla1-2, P32790 = target: T7, Sla1-2, P32790; settings: median of control spots 712
# Fus1, P11710 = target: T8, Fus1, P11710; settings: median of control spots 1200
# Boi1, P38041 = target: T9, Boi1, P38041; settings: median of control spots 1162
# Abp1, P15891 = target: T10, Abp1, P15891; settings: median of control spots 935
# Bbc1, P47068 = target: T11, Bbc1, P47068; settings: median of control spots 796
# Cyk3, Q07533 = target: T12, Cyk3, Q07533; settings: median of control spots 1451
# Lsb3, P43603 = target: T13, Lsb3, P43603; settings: median of control spots 406
# Pex13, P80667 = target: T14, Pex13, P80667; settings: median of control spots 1341
# Lsb1, P53281 = target: T15, Lsb1, P53281; settings: median of control spots 388
# Nbp2, Q12163 = target: T16, Nbp2, Q12163; settings: median of control spots 357
# GST = settings: median of control spots 978
# Myo5, Q04439 = target: T17, Myo5, Q04439; settings: median of control spots 471
# Myo3, P36006 = settings: median of control spots 468
# Hse1, P38753 = target: T18, Hse1, P38753; settings: median of control spots 1727
# Bzz1-2, P38822 = target: T19, Bzz1-2, P38822; settings: median of control spots 4538
# Sho1, P40073 = settings: median of control spots 1148
# Chain of Sho1, P40073 (P40073 287-367): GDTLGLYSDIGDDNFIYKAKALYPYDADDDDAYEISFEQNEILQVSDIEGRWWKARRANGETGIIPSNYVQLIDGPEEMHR
# Rvs167, P39743 = settings: median of control spots 2707
# Chain of Rvs167, P39743 (P39743 419-482): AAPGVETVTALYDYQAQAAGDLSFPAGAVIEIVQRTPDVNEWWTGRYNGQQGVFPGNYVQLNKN
# Cdc25, P04821 = target: T20, Cdc25, P04821; settings: median of control spots 969
# Hof1, Q05080 = target: T21, Hof1, Q05080; settings: median of control spots 4086
Binder,"SPOT intensity (Pin3, Q06449)","SPOT intensity (Bud14, P27637)","SPOT intensity (Boi2, P39969)","SPOT intensity (Bem1-2, P29366)","SPOT intensity (Lsb4, P32793)","SPOT intensity (Sla1-3, P32790)","SPOT intensity (Bem1-1, P29366)","SPOT intensity (Bzz1-1, P38822)","SPOT intensity (Sla1-2, P32790)","SPOT intensity (Fus1, P11710)","SPOT intensity (Boi1, P38041)","SPOT intensity (Abp1, P15891)","SPOT intensity (Bbc1, P47068)","SPOT intensity (Cyk3, Q07533)","SPOT intensity (Lsb3, P43603)","SPOT intensity (Pex13, P80667)","SPOT intensity (Lsb1, P53281)","SPOT intensity (Nbp2, Q12163)",SPOT intensity (GST),"SPOT intensity (Myo5, Q04439)",further results
B1,59,0,0,6,0,2,3,19,0,1,0,0,0,0,0,185,0,0,0,2,"SPOT intensity (Myo3, P36006): 0; SPOT intensity (Hse1, P38753): 9; SPOT intensity (Bzz1-2, P38822): 664; SPOT intensity (Sho1, P40073): 2; SPOT intensity (Rvs167, P39743): 7510; SPOT intensity (Cdc25, P04821): 0; SPOT intensity (Hof1, Q05080): 23"
B2,0,0,0,0,0,0,4,1,0,0,0,0,0,0,0,0,0,0,0,0,"SPOT intensity (Myo3, P36006): 0; SPOT intensity (Hse1, P38753): 0; SPOT intensity (Bzz1-2, P38822): 3; SPOT intensity (Sho1, P40073): 0; SPOT intensity (Rvs167, P39743): 0; SPOT intensity (Cdc25, P04821): 0; SPOT intensity (Hof1, Q05080): 0"
B3,0,0,0,1,0,0,4,8,0,0,0,0,0,0,0,0,0,0,0,1,"SPOT intensity (Myo3, P36006): 0; SPOT intensity (Hse1, P38753): 0; SPOT intensity (Bzz1-2, P38822): 0; SPOT intensity (Sho1, P40073): 0; SPOT intensity (Rvs167, P39743): 0; SPOT intensity (Cdc25, P04821): 0; SPOT intensity (Hof1, Q05080): 0"
B4,31,0,1,0,0,0,5,6,1,0,0,0,0,2,0,201,0,0,0,1,"SPOT intensity (Myo3, P36006): 0; SPOT intensity (Hse1, P38753): 7; SPOT intensity (Bzz1-2, P38822): 233; SPOT intensity (Sho1, P40073): 0; SPOT intensity (Rvs167, P39743): 1870; SPOT intensity (Cdc25, P04821): 0; SPOT intensity (Hof1, Q05080): 0"
